Assay results: patent US20210070882A1 (Hoffmann-La Roche, published 2021)
Where “and” joins values, the source holds several entries; their conditions need not be identical. Equal values may be shown once. Read-outs that look alike come from different tables or passages of the source.

T1: human CD19 (human, UniProt P15391 20-556)
T1 sequence (looked up): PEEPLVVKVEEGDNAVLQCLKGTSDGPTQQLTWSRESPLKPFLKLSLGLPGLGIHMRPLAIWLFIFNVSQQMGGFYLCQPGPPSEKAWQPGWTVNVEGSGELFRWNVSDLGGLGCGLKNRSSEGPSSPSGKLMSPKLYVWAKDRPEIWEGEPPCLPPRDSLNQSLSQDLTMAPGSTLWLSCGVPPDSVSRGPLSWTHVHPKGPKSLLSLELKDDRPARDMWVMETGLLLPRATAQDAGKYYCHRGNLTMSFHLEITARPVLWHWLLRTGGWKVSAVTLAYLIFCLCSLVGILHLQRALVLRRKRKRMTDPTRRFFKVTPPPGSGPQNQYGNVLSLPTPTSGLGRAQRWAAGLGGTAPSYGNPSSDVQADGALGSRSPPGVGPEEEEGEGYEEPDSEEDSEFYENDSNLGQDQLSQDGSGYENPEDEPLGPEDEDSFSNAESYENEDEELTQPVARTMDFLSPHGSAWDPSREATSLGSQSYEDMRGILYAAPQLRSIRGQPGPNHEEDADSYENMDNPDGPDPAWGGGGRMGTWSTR


Columns and labels:
human CD19 [1] = biological target: T1, human CD19; test: cell-based or functional assay
human CD19 [2] = biological target: T1, human CD19; test: cell-based or functional assay; remark: listed apart in the source
human CD19 [3] = biological target: T1, human CD19; test: cell-based or functional assay; remark: listed apart in the source
human CD19 [4] = biological target: T1, human CD19; test: cell-based or functional assay; remark: listed apart in the source
human CD19 [5] = biological target: T1, human CD19; test: flow cytometry on CD19-expressing Raji cells
Protocol: The binding of CD19 IgGs and CD19 TCBs to human CD19- and CD3-expressing target cells was tested using CD19-expressing Burkitt's lymphoma cells (Raji) and CD3-expressing immortalized T lymphocyte line (Jurkat). Briefly, cells were harvested, counted, checked for viability and resuspended at 2×10⁶ cells/ml in FACS buffer (100 μl PBS 0.1% BSA). 100 μl of cell suspension (containing 0.2×10⁶ cells) were incubated in round-bottom 96-well plate for 30 min at 4° C. with increasing concentrations of the CD19 IgGs and CD19 TCBs (10 pM-200 nM), washed twice with cold PBS 0.1% BSA, re-incubated for further 30 min at 4° C. with the PE-conjugated AffiniPure F(ab′)2 Fragment goat anti-human IgG Fcg Fragment Specific secondary antibody (Jackson Immuno Research Lab PE #109-116-170), washed twice with cold PBS 0.1% BSA and immediately analyzed by FACS using a FACS Cantoll (Software FACS Diva) by gating live, DAPI-negative, cells.

| Binder | Tumor cell lysis Z-138 cells (21 h), EC50 (human CD19 [1]) | Tumor cell lysis Z-138 cells (21 h), EC50 (pM) (human CD19 [1]) | T cell activation EC50 upon lysis of Z-138 cells, CD25/CD4 (human CD19 [2]) | T cell activation EC50 upon lysis of Z-138 cells, CD25/CD8 (human CD19 [2]) | T cell activation EC50 upon lysis of Z-138 cells, CD69/CD4 (human CD19 [2]) | T cell activation EC50 upon lysis of Z-138 cells, CD69/CD8 (human CD19 [2]) | T cell activation EC50 upon lysis of Z-138 cells, CD107/CD4 (human CD19 [2]) | T cell activation EC50 upon lysis of Z-138 cells, CD107/CD8 (human CD19 [2]) | Tumor cell lysis Z-138 cells (21 h), EC50 (human CD19 [3]) | Tumor cell lysis Z-138 cells (21 h), EC50 (pM) (human CD19 [3]) | T cell activation EC50 upon lysis of Z-138 cells, CD25/CD4 (human CD19 [4]) | T cell activation EC50 upon lysis of Z-138 cells, CD25/CD8 (human CD19 [4]) | T cell activation EC50 upon lysis of Z-138 cells, CD69/CD4 (human CD19 [4]) | T cell activation EC50 upon lysis of Z-138 cells, CD69/CD8 (human CD19 [4]) | T cell activation EC50 upon lysis of Z-138 cells, CD107/CD4 (human CD19 [4]) | T cell activation EC50 upon lysis of Z-138 cells, CD107/CD8 (human CD19 [4]) | EC50 (human CD19 [5]) |
| --- | --- | --- | --- | --- | --- | --- | --- | --- | --- | --- | --- | --- | --- | --- | --- | --- | --- |
| Molecule E: 1+1 IgG CrossFab, inverted, without charge modifications (CH1/CL exchange in CD3 binder, parental murine CD19 binder 8B8) (bispecific antibody) chain 1: not shown chain 2: QAVVTQEPSLTVSPGGTVTLTCGSSTGAVTTSNYANWVQEKPGQAFRGLIGGTNKRAPGTPARFSGSLLGGKAALTLSGAQPEDEAEYYCALWYSNLWVFGGGTKLTVLSSASTKGPSVFPLAPSSKSTSGGTAALGCLVKDYFPEPVTVSWNSGALTSGVHTFPAVLQSSGLYSLSSVVTVPSSSLGTQTYICNVNHKPSNTKVDKKVEPKSC chain 3: DAVMTQTPLSLPVSLGDQASISCRSSQSLENSNGNTYLNWYLQKPGQSPQLLIYRVSKRFSGVLDRFSGSGSGTDFTLKISRVEAEDLGVYFCLQLTHVPYTFGGGTKLEIKRTVAAPSVFIFPPSDEQLKSGTASVVCLLNNFYPREAKVQWKVDNALQSGNSQESVTEQDSKDSTYSLSSTLTLSKADYEKHKVYACEVTHQGLSSPVTKSFNRGEC chain 4: DKTHTCPPCPAPEAAGGPSVFLFPPKPKDTLMISRTPEVTCVVVDVSHEDPEVKFNWYVDGVEVHNAKTKPREEQYNSTYRVVSVLTVLHQDWLNGKEYKCKVSNKALGAPIEKTISKAKGQPREPQVCTLPPSRDELTKNQVSLSCAVKGFYPSDIAVEWESNGQPENNYKTTPPVLDSDGSFFLVSKLTVDKSRWQQGNVFSCSVMHEALHNHYTQKSLSLSP | 0.62 ng/mL | 4.2 pM | 3.55 pM | 3.31 pM | 1.04 pM | 1.71 pM | 2.09 pM | 2.76 pM |  |  |  |  |  |  |  |  |  |
| Molecule F: 1+1 IgG CrossMab with charge modifications (VH/VL exchange in CD3 binder, charge modification in CD19 binder, parental murine CD19 binder 8B8) (bispecific antibody) chain 1: EVQLQQSGPELVKPGASVKMACKASGYTFTDYIMHWVKQKTGQGLEWIGYINPYNDGSKYTEKFNGKATLTSDKSSITAYMELSSLTSEDSAVYYCARGTYYYGSALFDYWGQGTTLTVSSASTKGPSVFPLAPSSKSTSGGTAALGCLVEDYFPEPVTVSWNSGALTSGVHTFPAVLQSSGLYSLSSVVTVPSSSLGTQTYICNVNHKPSNTKVDEKVEPKSCDKTHTCPPCPAPEAAGGPSVFLFPPKPKDTLMISRTPEVTCVVVDVSHEDPEVKFNWYVDGVEVHNAKTKPREEQYNSTYRVVSVLTVLHQDWLNGKEYKCKVSNKALGAPIEKTISKAKGQPREPQVCTLPPSRDELTKNQVSLSCAVKGFYPSDIAVEWESNGQPENNYKTTPPVLDSDGSFFLVSKLTVDKSRWQQGNVFSCSVMHEALHNHYTQKSLSLSP chain 2: EVQLLESGGGLVQPGGSLRLSCAASGFTFSTYAMNWVRQAPGKGLEWVSRIRSKYNNYATYYADSVKGRFTISRDDSKNTLYLQMNSLRAEDTAVYYCVRHGNFGNSYVSWFAYWGQGTLVTVSSASVAAPSVFIFPPSDEQLKSGTASVVCLLNNFYPREAKVQWKVDNALQSGNSQESVTEQDSKDSTYSLSSTLTLSKADYEKHKVYACEVTHQGLSSPVTKSFNRGEC chain 3: DAVMTQTPLSLPVSLGDQASISCRSSQSLENSNGNTYLNWYLQKPGQSPQLLIYRVSKRFSGVLDRFSGSGSGTDFTLKISRVEAEDLGVYFCLQLTHVPYTFGGGTKLEIKRTVAAPSVFIFPPSDRKLKSGTASVVCLLNNFYPREAKVQWKVDNALQSGNSQESVTEQDSKDSTYSLSSTLTLSKADYEKHKVYACEVTHQGLSSPVTKSFNRGEC chain 4: not shown | 7.85 ng/mL | 53.7 pM | 10 pM | 6.5 pM | 3.97 pM | 2.59 pM | 7.54 pM | 4.02 pM |  |  |  |  |  |  |  |  |  |
| Molecule A: 2+1 IgG CrossFab, inverted, with charge modifications (VH/VL exchange in CD3 binder, charge modification in CD19 binder, parental murine CD19 … (bispecific antibody) chain 1: EVQLQQSGPELVKPGASVKMACKASGYTFTDYIMHWVKQKTGQGLEWIGYINPYNDGSKYTEKFNGKATLTSDKSSITAYMELSSLTSEDSAVYYCARGTYYYGSALFDYWGQGTTLTVSSASTKGPSVFPLAPSSKSTSGGTAALGCLVEDYFPEPVTVSWNSGALTSGVHTFPAVLQSSGLYSLSSVVTVPSSSLGTQTYICNVNHKPSNTKVDEKVEPKSCDKTHTCPPCPAPEAAGGPSVFLFPPKPKDTLMISRTPEVTCVVVDVSHEDPEVKFNWYVDGVEVHNAKTKPREEQYNSTYRVVSVLTVLHQDWLNGKEYKCKVSNKALGAPIEKTISKAKGQPREPQVCTLPPSRDELTKNQVSLSCAVKGFYPSDIAVEWESNGQPENNYKTTPPVLDSDGSFFLVSKLTVDKSRWQQGNVFSCSVMHEALHNHYTQKSLSLSP chain 2: not shown chain 3: EVQLLESGGGLVQPGGSLRLSCAASGFTFSTYAMNWVRQAPGKGLEWVSRIRSKYNNYATYYADSVKGRFTISRDDSKNTLYLQMNSLRAEDTAVYYCVRHGNFGNSYVSWFAYWGQGTLVTVSSASVAAPSVFIFPPSDEQLKSGTASVVCLLNNFYPREAKVQWKVDNALQSGNSQESVTEQDSKDSTYSLSSTLTLSKADYEKHKVYACEVTHQGLSSPVTKSFNRGEC chain 4: DAVMTQTPLSLPVSLGDQASISCRSSQSLENSNGNTYLNWYLQKPGQSPQLLIYRVSKRFSGVLDRFSGSGSGTDFTLKISRVEAEDLGVYFCLQLTHVPYTFGGGTKLEIKRTVAAPSVFIFPPSDRKLKSGTASVVCLLNNFYPREAKVQWKVDNALQSGNSQESVTEQDSKDSTYSLSSTLTLSKADYEKHKVYACEVTHQGLSSPVTKSFNRGEC |  |  |  |  |  |  |  |  | 0.92 ng/mL | ~4.7 pM | ~4.58 pM | 2.87 pM | 1.41 pM | 1.37 pM | 2.34 pM | 2 pM |  |
| Molecule G: 2+1 IgG CrossFab, inverted, with charge modifications (VH/VL exchange in CD19 binder, charge modification in CD3 binder, parental murine CD19 … (bispecific antibody) chain 1: DAVMTQTPLSLPVSLGDQASISCRSSQSLENSNGNTYLNWYLQKPGQSPQLLIYRVSKRFSGVLDRFSGSGSGTDFTLKISRVEAEDLGVYFCLQLTHVPYTFGGGTKLEIKSSASTKGPSVFPLAPSSKSTSGGTAALGCLVKDYFPEPVTVSWNSGALTSGVHTFPAVLQSSGLYSLSSVVTVPSSSLGTQTYICNVNHKPSNTKVDKKVEPKSCDKTHTCPPCPAPEAAGGPSVFLFPPKPKDTLMISRTPEVTCVVVDVSHEDPEVKFNWYVDGVEVHNAKTKPREEQYNSTYRVVSVLTVLHQDWLNGKEYKCKVSNKALGAPIEKTISKAKGQPREPQVCTLPPSRDELTKNQVSLSCAVKGFYPSDIAVEWESNGQPENNYKTTPPVLDSDGSFFLVSKLTVDKSRWQQGNVFSCSVMHEALHNHYTQKSLSLSP chain 2: not shown chain 3: EVQLQQSGPELVKPGASVKMACKASGYTFTDYIMHWVKQKTGQGLEWIGYINPYNDGSKYTEKFNGKATLTSDKSSITAYMELSSLTSEDSAVYYCARGTYYYGSALFDYWGQGTTLTVSSASVAAPSVFIFPPSDEQLKSGTASVVCLLNNFYPREAKVQWKVDNALQSGNSQESVTEQDSKDSTYSLSSTLTLSKADYEKHKVYACEVTHQGLSSPVTKSFNRGEC chain 4: QAVVTQEPSLTVSPGGTVTLTCGSSTGAVTTSNYANWVQEKPGQAFRGLIGGTNKRAPGTPARFSGSLLGGKAALTLSGAQPEDEAEYYCALWYSNLWVFGGGTKLTVLGQPKAAPSVTLFPPSSKKLQANKATLVCLISDFYPGAVTVAWKADSSPVKAGVETTTPSKQSNNKYAASSYLSLTPEQWKSHRSYSCQVTHEGSTVEKTVAPTECS |  |  |  |  |  |  |  |  | 0.57 ng/mL | 2.93 pM | 1.85 pM | 1.53 pM | ~0.75 pM | 0.7 pM | 1.14 pM | 1.13 pM |  |
| CD19_IgG_10C1 (antibody, V domains shown, also called CD19 IgG (clone 10C1); 10C1 as IgG) VH: EVQLQQSGPELVKPGASVKMSCKASGYTFTSYVMHWVKQKPGQGLEWIGYINPYNDGTKFNEKFKGKATLTSDKSSSTAYMELSSLTSEDSAVYYCTRGVYYYGSSQGDYWGQGTTLTVSS VL: DAVMTQTPLSLPVSLGDQASISCRSSQSLENSNGNTYLNWYLQKPGQSPQLLIYRISNRFSGVPDRFNGSGSGTDFTLKISRVEAEDLGVYFCLQVTHVPWTFGGGTKLEIK |  |  |  |  |  |  |  |  |  |  |  |  |  |  |  |  | 5.2 nM and 0.763 µg/mL |
